According to US20080274950A1 (BABRAHAM INSTITUTE, published 2008):

Experiments:
[1] = target: T1, mouse N-cadherin with an uncleaved prodomain expressed on L cells (furin site RQKR replaced with Factor Xa … (mouse, UniProt P15116 160-906)); test: adhesion of L cell transfectants to coated N-cadherin Fc
T1 construct: whole, on cells; Prodomain is still attached in the assay; also called unprocessed N-cadherin; L cell transfectants expressing unprocessed N-cadherin
T1 sequence (looked up): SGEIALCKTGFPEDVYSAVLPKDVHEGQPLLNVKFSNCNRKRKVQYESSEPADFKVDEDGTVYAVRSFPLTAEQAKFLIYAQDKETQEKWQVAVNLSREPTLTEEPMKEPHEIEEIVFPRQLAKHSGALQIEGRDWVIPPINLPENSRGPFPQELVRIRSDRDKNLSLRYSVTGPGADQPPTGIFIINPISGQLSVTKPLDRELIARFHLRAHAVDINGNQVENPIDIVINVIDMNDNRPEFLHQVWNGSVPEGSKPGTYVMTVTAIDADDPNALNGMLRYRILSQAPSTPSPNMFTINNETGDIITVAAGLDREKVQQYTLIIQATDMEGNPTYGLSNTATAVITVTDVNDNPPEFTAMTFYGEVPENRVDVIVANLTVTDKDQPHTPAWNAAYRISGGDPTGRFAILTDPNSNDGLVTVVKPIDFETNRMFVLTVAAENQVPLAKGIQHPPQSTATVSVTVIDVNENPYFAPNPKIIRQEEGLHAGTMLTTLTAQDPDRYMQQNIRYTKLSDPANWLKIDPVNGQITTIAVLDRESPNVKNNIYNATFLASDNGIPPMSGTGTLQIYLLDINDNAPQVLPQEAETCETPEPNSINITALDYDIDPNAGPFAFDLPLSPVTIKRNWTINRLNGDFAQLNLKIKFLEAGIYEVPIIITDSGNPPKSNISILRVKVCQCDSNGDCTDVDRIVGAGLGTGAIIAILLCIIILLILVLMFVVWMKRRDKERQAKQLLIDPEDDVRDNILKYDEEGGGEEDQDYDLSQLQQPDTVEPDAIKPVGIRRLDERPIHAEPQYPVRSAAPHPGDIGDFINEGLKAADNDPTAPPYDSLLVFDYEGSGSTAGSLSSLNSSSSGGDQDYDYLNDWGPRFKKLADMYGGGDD
Experimental: Adhesion tests were conducted substantially as described in Example 1. Briefly, K562 Cells or L cells transfected with wild type or mutant N-cadherin were allowed to settle for 45 minutes at 37° C. onto N-cadherin Fc fusion proteins coated at 1 μg/ml to a 96 well plate. Non-adherent cells were then washed off and residual adherent cells were quantitated by measuring acid phosphatase activity. Assays were conducted in quadruplicate and results are expressed as % cells adhering +/−SEM.
L cells expressing mouse N-cadherin with an uncleaved prodomain (see Koch et al., 2004) were obtained from Dr Weisong Shan (Montreal Neurological Institute). The normal furin cleavage site, RQKR, had been replaced with a Factor Xa site, IEGR, to give the correct N-terminus after digestion. […] L cells suspended in HBSS containing 0.1% BSA were treated with 0.01% trypsin (Sigma, Type XI) in the presence of 2 mM Ca²⁺ for 10 minutes at 37° C. and the digestion was then quenched with soyabean trypsin inhibitor, 0.5 mg per ml (Sigma, Type I-S). Cells were then washed and tested for adhesion to N-cadherin Fc-fusion protein. To check for complete removal of the prodomain, the cells were lysed in SDS sample buffer and the cadherin analysed by SDS PAGE under reducing conditions on a 4-12% gradient gel. […]

[2] = target: the molecule itself; test: bead aggregation assay, 1.25 mM CaCl2
Experimental: Dynabeads (Dynal Biotech) coupled to Protein A were coated with N-cadherin Fc at 1 μg/ml in calcium and magnesium-free HBSS containing 0.1% Tween 20, 1% FCS and 4 mM EDTA. Eppendorf tubes containing beads and fusion protein were rotated slowly for 1 hour at room temperature to allow binding to take place. The beads were then washed in the above assay buffer lacking EDTA and then resuspended in the same buffer supplemented with 1.25 mM CaCl₂. Beads were allowed to aggregate in a volume of 100 μl for 2 hours at 37° C. by slow rotation, in an eppendorf tube, at approximately 20 rpm. Aggregation was then assessed by light microscopy.
In the experiments described so far in this example, disruption of the salt bridge prevented intramolecular docking of Trp 2 in one or both components of the dimer. In an alternative strategy to prevent intramolecular docking, we removed Trp2 by introducing the mutation W2G or blocked the hydrophobic acceptor pocket with an isoleucine side chain projecting into the cavity using the mutation A801. N-cadherin Fc fusion proteins with these mutations were then tested against our panel of K562 transfectants (FIG. 17a). In keeping with the explanation given in FIG. 5, the W2G mutant acted as a strand acceptor and therefore adhered strongly to the E89A mutant whereas the A80I mutant was a strand donor and adhered to the GG extension mutant. […] In contrast, beads coated with the W2G or A801 mutants and tested separately clustered in twos and threes, whereas beads coated with the negative control mutant, D134A, were entirely monodisperse. To test whether all five extracellular domains of N-cadherin (EC1-EC5) are necessary for the strong adhesive interaction between the complementary mutants, we compared the adhesive activity of the W2G mutant prepared as a full length (EC1-EC5) Fc fusion protein with that of the same mutant prepared as a truncated construct containing only cadherin domains EC1 and EC2.

B1: wild type chicken N-cadherin-Fc fusion protein, dimeric (linked by disulphide bonds at the Ig hinge region) (Fc fusion, UniProt P10288 165-729, looked up)
chain: DWVIPPINLPENSRGPFPQELVRIRSDRDKSLSLRYSVTGPGADQPPTGIFIINPISGQLSVTKPLDREQIASFHLRAHAVDVNGNQVENPIDIVINVIDMNDNRPEFLHQVWNGTVPEGSKPGTYVMTVTAIDADDPNAQNGMLRYRILSQAPSSPSPNMFTINNETGDIITVAAGLDREKVQQYTLIIQATDMEGNPTYGLSNTATAVITVTDVNDNPPEFTAMTFYGEVPENRVDVIVANLTVTDKDQPHTPAWNARYQMTGGDPTGQFTILTDPNSNDGLVTVVKPIDFETNRMFVLTVAAENQVPLAKGIQHPPQSTATVSITVIDVNESPYFVPNPKLVRQEEGLLAGSMLTTFTARDPDRYMQQTSLRYSKLSDPANWLKIDPVNGQITTTAVLDRESIYVQNNMYNATFLASDNGIPPMSGTGTLQIYLLDINDNAPQVNPKEATTCETLQPNAINITAVDPDIDPNAGPFAFELPDSPPSIKRNWTIVRISGDHAQLSLRIRFLEAGIYDVPIVITDSGNPHASSTSVLKVKVCQCDINGDCTDVDRIVGAGLGTG
notes: extracellular domain; also called dimeric N-cadherin-Fc; wild type N-cadherin; not shown: hinge region, CH2 and CH3 domains of human IgG1 heavy chain (vector pIgSig)
B1: no binding (tested: Fc fusion protein coated at 1 µg/ml) [1]; binds [2].

B2: chicken N-cadherin-Fc fusion protein with the mutation D134A, dimeric (Fc fusion, UniProt P10288 165-728, looked up)
chain: DWVIPPINLPENSRGPFPQELVRIRSDRDKSLSLRYSVTGPGADQPPTGIFIINPISGQLSVTKPLDREQIASFHLRAHAVDVNGNQVENPIDIVINVIDMNDNRPEFLHQVWNGTVPEGSKPGTYVMTVTAIAADDPNAQNGMLRYRILSQAPSSPSPNMFTINNETGDIITVAAGLDREKVQQYTLIIQATDMEGNPTYGLSNTATAVITVTDVNDNPPEFTAMTFYGEVPENRVDVIVANLTVTDKDQPHTPAWNARYQMTGGDPTGQFTILTDPNSNDGLVTVVKPIDFETNRMFVLTVAAENQVPLAKGIQHPPQSTATVSITVIDVNESPYFVPNPKLVRQEEGLLAGSMLTTFTARDPDRYMQQTSLRYSKLSDPANWLKIDPVNGQITTTAVLDRESIYVQNNMYNATFLASDNGIPPMSGTGTLQIYLLDINDNAPQVNPKEATTCETLQPNAINITAVDPDIDPNAGPFAFELPDSPPSIKRNWTIVRISGDHAQLSLRIRFLEAGIYDVPIVITDSGNPHASSTSVLKVKVCQCDINGDCTDVDRIVGAGLGT
notes: extracellular domain; also called D134A mutant; N-cadherin Fc mutant D134A; not shown: hinge region, CH2 and CH3 domains of human IgG1 heavy chain (vector pIgSig)
B2: no binding (tested: Fc fusion protein coated at 1 µg/ml) [1]; no binding (tested: beads coated at 1 µg/ml) [2].
